Laboratory results reported in article PMC3358306 (PLoS ONE, 2012).
Several values for one entry are separate records, joined by “and”; a condition that tells them apart may be missing. Equal values may be shown once.

Key:
AUC = target: the molecule itself; test: AUC
[1] = target: the molecule itself; test: SEC; analytical Superdex 200, sample diluted in buffer with 2 mM adenosine; 50 mM Tris pH 8.0, 200 mM NaCl, 0.2% β-mercaptoethanol; 3 µg/µl protein
[2] = target: the molecule itself; test: SEC; analytical Superdex 200, sample diluted in buffer with 2 mM ATP; 50 mM Tris pH 8.0, 200 mM NaCl, 0.2% β-mercaptoethanol; 3 µg/µl protein
[3] = target: the molecule itself; test: SEC; analytical Superdex 200, no ligand; 50 mM Tris pH 8.0, 200 mM NaCl, 0.2% β-mercaptoethanol; 3 µg/µl protein; size by calibration proteins

B1: Archaeoglobus fulgidus Rio1 kinase Y200D mutant (enzyme, UniProt O28471 1-258, looked up)
chain: MKDLKKIESYLDKLRIKEKDGEERKIYAEVLDGRTLKTLYKLSAKGYITAMGGVISTGKEANVFYADGVFDGKPVAMAVKIYRIETSEFDKMDEYLYGDERFDMRRISPKEKVFIWTEKEFRNLERAKEAGVSVPQPYTYMKNVLLMEFIGEDELPAPTLVELGRELKELDVEGIFNDVVENVKRLYQEAELVHADLSEDNIMYIDKVYFIDMGQAVTLRHPMAESYLERDVRNIIRFFSKYGVKADFEEMLKEVKGE
notes: Rio1 kinase of Archaeoglobus fulgidus, full length, with Tyr 200 mutated to Asp; also called afRio1 Y200D; afRio1Y200D
stoichiometry N (AUC): 4 and 3

B2: human Rio1 kinase, residues 106 to 494, unphosphorylated (domain or fragment, UniProt Q9BRS2 106-494, looked up)
chain: STPADKVLRKFENKINLDKLNVTDSVINKVTEKSRQKEADMYRIKDKADRATVEQVLDPRTRMILFKMLTRGIITEINGCISTGKEANVYHASTANGESRAIKIYKTSILVFKDRDKYVSGEFRFRHGYCKGNPRKMVKTWAEKEMRNLIRLNTAEIPCPEPIMLRSHVLVMSFIGKDDMPAPLLKNVQLSESKARELYLQVIQYMRRMYQDARLVHADLSEFNMLYHGGGVYIIDVSQSVEHDHPHALEFLRKDCANVNDFFMRHSVAVMTVRELFEFVTDPSITHENMDAYLSKAMEIASQRTKEERSSQDHVDEEVFKRAYIPRTLNEVKNYERDMDIIMKLKEEDMAMNAQQDNILYQTVTGLKKDLSGVQKVPALLENQVEERT
notes: Rio1 kinase, human, residues 106 to 494; monomer MW 45.1 kDa as printed; also called hRio1; unphosphorylated hRio1; source: size exclusion; purified in the presence of 1 mM adenosine to prevent autophosphorylation
stoichiometry N [1]: 4 | stoichiometry N [2]: 2

B3: autophosphorylated human Rio1 kinase, residues 106 to 494 (domain or fragment, UniProt Q9BRS2 106-494, looked up)
chain: B2 chain
modifications: autophosphorylated; site not given
notes: Rio1 kinase, human, residues 106 to 494, autophosphorylated; Same construct as m4, autophosphorylated in vitro; also called phosphorylated hRio1; autophosphorylated hRio1; source: purified hRio1 incubated at 25°C for 1 hr in 50 mM Tris pH 8.0, 200 mM NaCl, 2 mM MgCl2 and 0.2% β-mercaptoethanol
stoichiometry N [3]: 2
